Values of other authors in PMC7830601.
Read-outs that look alike come from different tables or passages of the source. Values belong to the substance of their own block, whether it stands above or below them.

Columns and labels:
[1] = biological target: AIM2 HIN (Homo sapiens) (UniProt O14862); assay: ITC
[2] = biological target: ASC PYD (Homo sapiens) (UniProt Q9ULZ3)
[3] = biological target: ASC PYD (Homo sapiens) (UniProt Q9ULZ3); remark: listed apart in the source
[4] = biological target: ASC CARD (Homo sapiens) (UniProt Q9ULZ3); assay: NMR

- Kd [1]: 23.5 µM
Substance: AIM2 PYD (from UniProt O14862)

- Kd [2]: 3.81 µM
- Kd [3]: 4.08 µM
Substance: ASC2 (from UniProt Q8WXC3)

- Kd [4]: 50 µM
Substance: ASC CARD (from UniProt Q9ULZ3)
